Patent US20250027068

Molecular target: pooled human IgG

B1: PRT-120 (protein)
chain: MRNATEAYNEETPKQITSVWTKGVTPLTPEDFRYNNEDVFHAPYLANQGWYDITKTFNGKDNLLCGAATAGNMLHWWFDQNKEEIEAYLKKHPEKQKIIFNNQELFDLKAAIDTKDSQTNSQLFNYFKDKAFPNLSARQLGVMPDLVLDMFINGYYLNVNKTQSTDVNRPYQDKDKRGGIFDAVFTRGDQTKLLTERHDLKNKGLNDISTLIKQELTEGKALALSHTYANVSINHVINLWGADFDAEGNLEAIYVTDSDSNESIGMKKYFVGINAAGKVAISAKKIEDENIGAQVLGLFTLSSGKDIWQQLS
Enzyme Activity Endpoint Assay (purified): Fab'2: 92 ng/µL
Enzyme Activity Endpoint Assay (purified): Fc: 113 ng/µL
Enzyme Activity Endpoint Assay (purified): IgG: 28 ng/µL
Enzyme Activity Endpoint Assay (purified): scIgG: 153 ng/µL

B2: PRT-121 (protein)
chain: MRNATEAYNEDTPKQITSVWTKGVTPPTPEQFRKYNEDVLHAPYIANQGWYDITKTFNGKDDLLCGAATAGNMLHWWFDQNKTEIEAYLSKYPEKQKIIFNNQELFDLRAAIDTKDSQTNSALFNYFRDKAFPNLSARQLGVMPDLVLDMFINGYYLNVTKTQSTDVNRPYQTKDKRGGIFDAVFTRGDQTTLLTSRHDLKNKTLNEISDLIKQELTEGKALALSHTYANVSISHVINLWGADFNAEGNLEAIYVTDSDANASIGMKKYFVGVNAAGKVAISAKKIEGENIGAQVLGLFTLSTGKDIWEKLS
Enzyme Activity Endpoint Assay (purified): Fab'2: 447 ng/µL
Enzyme Activity Endpoint Assay (purified): Fc: 174 ng/µL
Enzyme Activity Endpoint Assay (purified): IgG: 0 ng/µL
Enzyme Activity Endpoint Assay (purified): scIgG: 0 ng/µL

B3: PRT-118 (protein)
chain: MRNATEAYNKETPKTITSVWTKGVTPPTPEQFTKQNEDVFHAPYVANQGWYDITKTFNGKDNLLCGAATAGNMLHWWFDQNKTEIENYLKKHPEKQKIIFNNQELFDLKAAIDTKDSQTNSALFNYFRDKAFPNLSARQLGVMPDHVLDMFINGYYLNVNKTQSTDVNRPYDDKDKRGGIFDAVFTRGDQTTLLTARHDLKNKGLNEISTLIKQELTEGRALALSHTYANVSISHVINLWGADFNAEGNLEAIYVTDSDANASIGMKKYFVGKNASGKVAISAKKIEGDNIGAQVLGLFTLSSGKDIWQKLS
Enzyme Activity Endpoint Assay (purified): Fab'2: 23 ng/µL
Enzyme Activity Endpoint Assay (purified): Fc: 85 ng/µL
Enzyme Activity Endpoint Assay (purified): IgG: 0 ng/µL
Enzyme Activity Endpoint Assay (purified): scIgG: 153 ng/µL

B4: PRT-115 (protein)
chain: MRNATEAYAKETPKTITSVWTKGVTPPTPEQFRYNGEDVIHAPYLAHQGWYDITKTFDGKDNLLCGAATAGNMLHWWFDQNKTEIERYLKKHPEKQKIIFNNQELFDLKAAIDTKDSQTNSALFNYFRDKAFPNLSARQLGVMPDLVLDMFINGYYLNVTKTQSTDVNRPYQTKDKRGGIFDAVFTRGDQTKLLTARHDLKNKTLNDISTLIKQELTEGKALALSHTYANVSISHVINLWGADFNAEGNLEAIYVTDSDSNASIGMKKYFVGVNAAGKVAISAKKIKGENIGAQVLGLFTLSSGKDIWQKLS
Enzyme Activity Endpoint Assay (purified): Fab'2: 124 ng/µL
Enzyme Activity Endpoint Assay (purified): Fc: 128 ng/µL
Enzyme Activity Endpoint Assay (purified): IgG: 24 ng/µL
Enzyme Activity Endpoint Assay (purified): scIgG: 105 ng/µL

B5: PRT-124 (protein)
chain: MRNATEAYAKEVPHQITSVWTKGVTPLTPEQFRYNNEDVIHAPYLAHQGWYDITKTFDGKDNLLCGAATAGNMLHWWFDQNKTEIEAYLSKHPEKQKIIFNNQELFDLKAAIDTKDSQTNSQLFNYFRDKAFPNLSARQLGVMPDLVLDMFINGYYLNVFKTQSTDVNRPYQDKDKRGGIFDAVFTRGDQTTLLTARHDLKNKGLNDISTIIKQELTEGKALALSHTYANVSISHVINLWGADFNAEGNLEAIYVTDSDANASIGMKKYFVGVNAHGKVAISAKKIEGENIGAQVLGLFTLSSGKDIWQKLS
Enzyme Activity Endpoint Assay (purified): Fab'2: 676 ng/µL
Enzyme Activity Endpoint Assay (purified): Fc: 202 ng/µL
Enzyme Activity Endpoint Assay (purified): IgG: 0 ng/µL
Enzyme Activity Endpoint Assay (purified): scIgG: 0 ng/µL

B6: PRT-114 (protein)
chain: MRNATEAYNEETPHQITSVWTKGVTPPTPEQFRYNNEDVIHAPYLANQGWYDITKTFNGKDNLLCGAATAGNMLHWWFDQNKTEIEAYLSKHPEKQKIIFNNQELFDLKAAIDTKDSQTNSQLFNYFREKAFPNLSARQLGVMPDLVLDMFINGYYLNVTKTQSTDVNRPYQDKDKRGGIFDAVFTRGDQTKLLTARHDLKNKTLNEISTLIKQELTEGRALALSHTYANVSISHVINLWGADFNAEGNLEAIYVTDSDANASIGMKKYFVGVNAAGHVAISAKKIEGENIGAQVLGLFTLSSGKDIWQKLS
Enzyme Activity Endpoint Assay (purified): Fab'2: 361 ng/µL
Enzyme Activity Endpoint Assay (purified): Fc: 162 ng/µL
Enzyme Activity Endpoint Assay (purified): IgG: 129 ng/µL
Enzyme Activity Endpoint Assay (purified): scIgG: 111 ng/µL

B7: PRT-117 (protein)
chain: MRNATEAYAKEVPHTITSVWTKGVTPPTPEQFTYQNEDVFHAPYLANQGWYDITKTFNGKDNLLCGAATAGNMLHWWFDQNKEEIERYLSKHPEKQKIIFNNQELFDLKAAIDTKDSQTNSALFNYFRDKAFPNLSARQLGVMPDLVLDMFINGYYLNVFKTQSTDVNRPYQDKDKRGGIFDAVFTRGDQTTLLTARHDLKNKGLNDISDLIKQELTEGKALALSHTYANVSISHVINLWGADFNAEGNLEAIYVTDSDANASIGMKKYFVGVNTAGKVAISAKKIEGENIGAQVLGLFTLSSGKDIWEQLS
Enzyme Activity Endpoint Assay (purified): Fab'2: 663 ng/µL
Enzyme Activity Endpoint Assay (purified): Fc: 207 ng/µL
Enzyme Activity Endpoint Assay (purified): IgG: 0 ng/µL
Enzyme Activity Endpoint Assay (purified): scIgG: 0 ng/µL

B8: PRT-112 (protein)
chain: MRNATEAYAKEVPHKITSVWTKGVTPLTPEQFRYNGEDVIHAPYLANQGWYDITKTFDGKDNLLCGAATAGNMLHWWFDQNKTEIEAYLKKHPEKQKIIFNNQELFDLKAAIDTKDSQTNSALFNYFKDKAFPNLSARQLGVMPDHVLDMFINGYYLNVFKTQSTDVNRPYQDKDKRGGIFDAVFTRGDQTKLLTARHDLKNKGLNEISTLIKQELTEGKALALSHTYANVSISHVINLWGADFNAEGNLEAIYVTDSDANASIGMKKYFVGVNASGKVAISAKKIEGENIGAQVLGLFTLSSGKDIWQKLS
Enzyme Activity Endpoint Assay (purified): Fab'2: 435 ng/µL
Enzyme Activity Endpoint Assay (purified): Fc: 152 ng/µL
Enzyme Activity Endpoint Assay (purified): IgG: 15 ng/µL
Enzyme Activity Endpoint Assay (purified): scIgG: 0 ng/µL

B9: PRT-113 (protein)
chain: MRNATEAYAKEVPHTITSVWTKGVTPPTPEQFTYYNEDVFHAPYLAHQGWYDITKTFNGKDNLLCGAATAGNMLHWWFDQNKTEIEAYLSKHPEKQKIIFNNQELFDLKAAIDTKDSQTNSQLFNYFKDKAFPNLSARQLGVMPDLVLDMFINGYYLNVFKTQSTDVNRPYQDKDKRGGIFDAVFTRGDQTKLLTARHDLKNKGLNDISDLIKQELTEGKALALSHTYANVSINHVINLWGADFNAEGNLEAIYVTDSDANASIGMKKYFVGINASGKVAISAKKIEGENIGAQVLGLFTLSSGKDIWQKLS
Enzyme Activity Endpoint Assay (purified): Fab'2: 656 ng/µL
Enzyme Activity Endpoint Assay (purified): Fc: 189 ng/µL
Enzyme Activity Endpoint Assay (purified): IgG: 0 ng/µL
Enzyme Activity Endpoint Assay (purified): scIgG: 0 ng/µL

B10: PRT-116 (protein)
chain: MRNATEAYNKATPTTITSVWTKGVTPPTPEQFRYNNEDVFHAPYKAHQGWYDITKTFNGKDNLLCGAATAGNMLHWWFDQNKTEIEAYLSKHPEKQKIIFNNQELFDLKAAIDTKDSQTNSQLFNYFRDKAFPNLSARQLGVMPDLVLDMFINGYYLNVFKTQSTDVNRPYQDKDKRGGIFDAVFTRGDQTKLLTARHDLKDKGLNEISDLIKQELTEGKALALSHTYANVRISHVINLWGADFNAEGNLEAIYVTDSDANASIGMKKYFVGVNSSGHVAISAKKIEGENIGAQVLGLFTLSSGKDIWQKLS
Enzyme Activity Endpoint Assay (purified): Fab'2: 510 ng/µL
Enzyme Activity Endpoint Assay (purified): Fc: 188 ng/µL
Enzyme Activity Endpoint Assay (purified): IgG: 0 ng/µL
Enzyme Activity Endpoint Assay (purified): scIgG: 0 ng/µL

B11: PRT-122 (protein)
chain: MRNATEAYAKEVPKKITSVWTKGVTPLTPEQFIYQNEDVFHAPYLAHQGWYDITKTFNGKDNLLCGAATAGNMLHWWFDQNKEEIERYLSKHPEKQKIIFNNQELFDLKAAIDTKDSQTNSALFNYFRDKAFPNLSARQLGVMPDLVLDMFINGYYLNVTKTQSTDVNRPYQTKDKRGGIFDAVFTRGDQTKLLTERHDLKNKTLEEISQLIKQELTEGKALGLSHTYANVRISHVINLWGADFDAEGNLEAIYVTDSDSNASIGMKKYFVGVNASGKVAISAKKIEDDNIGAQVLGLFTLSSGKDIWEKLS
Enzyme Activity Endpoint Assay (purified): Fab'2: 565 ng/µL
Enzyme Activity Endpoint Assay (purified): Fc: 194 ng/µL
Enzyme Activity Endpoint Assay (purified): IgG: 138 ng/µL
Enzyme Activity Endpoint Assay (purified): scIgG: 0 ng/µL

B12: PRT-123 (protein)
chain: MRNATEAYNKESPHTITSVWTKGVTPPTPEDFRYNNEDVLHAPYVANQGWYDITKTFDGKDNLLCGAATAGNMLHWWFDQNKEEIERYLKKHPEKQKIIFNNQELFDVKAAIDTKDSQTNSKLFNYFRDKAFPNLSARQLGVMPDLVLDMFINGYYLNLGKTQSTDVNRPYQDKDKRGGIFDAVFTRGDQTTLLTARHDLKNKGLNEISDLIKQELTEGKALALSHTYANVRINHVINLWGADFDAEGNLIAIYVTDSDANASIGMKKYFVGVNANGKVAISAKKIEGDNIGAQVLGLFTLSTGQDIWQKLS
Enzyme Activity Endpoint Assay (purified): Fab'2: 468 ng/µL
Enzyme Activity Endpoint Assay (purified): Fc: 187 ng/µL
Enzyme Activity Endpoint Assay (purified): IgG: 0 ng/µL
Enzyme Activity Endpoint Assay (purified): scIgG: 0 ng/µL

B13: PRT-119 (protein)
chain: MRNATEAYAKETPKQITSVWTKGVTPPTPEQFRYNNEDVFHAPYVANQGWYDITKTFDGKDNLLCGAATAGNMLHWWFDQNKTEIEKYLSKHPEKQKIIFNNQELFDLKAAIDTKDSQTNSQLFNYFRDKAFPNLSARQLGVMPDLVLDMFINGYYLNVTKTQSTDVNRPYQDKDKRGGIFDAVFTRGDQTKLLTARHDLGNKSLNEISQLIKQELQEGKALALSHTYANVRISHVINLWGADFDAEGNLEAIYVTDSDSNASIGMKKYYVGVNSAGKVAISAKKIEGENIGAQVLGLFTLSSGKDIWQKLS
Enzyme Activity Endpoint Assay (purified): Fab'2: 15 ng/µL
Enzyme Activity Endpoint Assay (purified): Fc: 96 ng/µL
Enzyme Activity Endpoint Assay (purified): IgG: 0 ng/µL
Enzyme Activity Endpoint Assay (purified): scIgG: 133 ng/µL

B14: PRT-10 (protein)
chain: MANQEIRYSEVTPYTVTSVWTKGVTPPANFTQGEDVFHAPYVANQGWYDITKTFNGKDDLLCGAATAGNMLHWWFDQNKEQIERYLKEHPEKQKINFNGEQMFDVKEAIDTKDSQLDSELFEYFKEKAFPYLSTKHLGVFPDHVIDMFINGYRLSLTNHGPTPVKEGSKDPRGGIFDAVFTRGDQSKLLTSRHDFKEKTLKEISDLIKKELTEGKALALSHTYANVRINHVINLWGADFDSEGNLEAIYVTDSDSNASIGMKKYFVGVNSAGKVAISAKEIEDDNIGAQVLGLFTLSTGQDIWNQTN
Enzyme Activity Endpoint Assay: Fab′2: 2 ng/µL
Enzyme Activity Endpoint Assay: Fc: 56 ng/µL
Enzyme Activity Endpoint Assay: IgG: 32 ng/µL
Enzyme Activity Endpoint Assay: scIgG: 58 ng/µL
